Laboratory results as given in the supplement of paper PMC9170038.

System: MS2 coat protein
Assay: apparent KD of MS2 coat protein; designed switch direction (-1 OFF switch, 1 ON switch): 1; higher = weaker reporter binding
Summary of the method: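 Three titration conditions were used: no input, 200 uM small-molecule ligand, and an oligonucleotide input. In each, SNAP-549-labelled MS2 coat protein was raised from 0.7 or 1.5 nM, doubling, to 3 µM over designed RNA switches transcribed on Illumina chips by stalled E. coli RNA polymerase. Curve fits of normalised cluster fluorescence gave values whose per-design median over clusters is the apparent KD.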

[1] = input ligand: microRNA oligo, concentration not stated
[2] = Eterna round: R95, input ligand: FMN 200 uM
[3] = Eterna round: R95, input ligand: microRNA oligo, concentration not stated
[4] = Eterna round: R95, input ligand: none

Sequence	apparent KD of MS2 coat protein (input ligand: FMN 200 uM) [nM]	apparent KD of MS2 coat protein [1] [nM]	apparent KD of MS2 coat protein (input ligand: none) [nM]	apparent KD of MS2 coat protein [2] [nM]	apparent KD of MS2 coat protein [3] [nM]	apparent KD of MS2 coat protein [4] [nM]
GUGGUCAGACAUGAGGAUCACCCAUGUGGAAUAAAUAACGUACAGGAUAUGGAAUAUAGGAUAUACUAGAAGGGUAGAUUGGUG (Eterna round: R96, puzzle: Same State NG 3)	110	75.3	87.7	–	–	–
AACAAUCUAUCUGAGGAUAUCAUGAAAAAAACAUGAGGAUCACCCAUGUGCAGGAAAACUGCAUAUGAGAAGGCAGAUAGAUUGU [salish99_SS2_r3_002] (Eterna round: R96, puzzle: Same State 2)	–	480	–	–	–	–
GGAGCCGGCCUAGGAUAUUUCAUAAAACAACAUGAGGAUCACCCAUGUAGGCCAGAAGGCCUUGGGAAGAAGGAGGUCGGCUCC [Loop Effect - C28] (Eterna round: R96, puzzle: Same State NG 2)	10.2	19.7	28.4	–	–	–
GGCCUCUGUCAAGGAUAUGCUACCGUUUCGGUAGCAGAAGGUGAUCACAUGAGGAUCACCCAUGUUUAGGCCCUCUGGCCCGCC (Eterna round: R96, puzzle: Same State NG 1)	114	330	138	–	–	–
GACCGCGAGGAAGGAUAUGGAGCCUUAUUGGCUCCAGAAGGUCCAUAAAGGACAUGAGGAUCACCCAUGUGGUGAGAAGCGGUC [Fiskers NG1ss - 27] (Eterna round: R96, puzzle: Same State NG 1)	–	788	–	–	–	–
AAAAGUUGCGGGCAGGAUAUGUAUUAAAAUACAUGAGGAUCACCCAUGUGCGGGUAUAACACCCGACAGAAGGGCCAAUCGCGAC [Mat - Same State 2 - Mod of UCT - D95] (puzzle: Same State 2)	–	–	–	29.6	160	226
UGACACACGGCAGGAUAUCGAUAGCAAAGCUAUCGAGAAGGGCCUCAUGUCGUGGAAACGUGACAUGAGGAUCACCCAUGUCGC [Omei SS(NG)1 Cv12] (Eterna round: R96, puzzle: Same State NG 1)	72	12.6	26.6	–	–	–
CUAUUAGGAUGAGGAUAUGCAGAGGAUCACCCUGUAGAAGGCAAUAGAUGAGGAUAUGCAGAGGAUCACCCUGUAGAAGGCAAC [pwkr ssNG DX.3] (Eterna round: R96, puzzle: Same State NG 1)	423	98.9	177	–	–	–
UUUAUUUAUGCAGGAUAUGAUUAACAUGAGGAUCACCCAUGUGGUGUUGUGAGUAAGGAGAGUGAUCAGAAGGGCAUUUUUUUU [JMF's solution 76] (Eterna round: R96, puzzle: Same State NG 2)	610	396	487	–	–	–
AAAUAAAACACAGGAUAUGCAACCAAUACGGCGGCAGAAGGGUGAGACAUGAGGAUCACCCAUGUACACGUCCCACAGACGUGC [Onlaa] (Eterna round: R96, puzzle: Same State NG 1)	387	243	175	–	–	–
GGACGUCAUCUCACUGAUUAAACAUGAGGAUCACCCAUGUCACAGGAUAUGAGUCCGAUUAGGACUCAGAAGGGUGUGACGUCC [Fiskers NG3ss - 45] (Eterna round: R96, puzzle: Same State NG 3)	20.7	14.6	22.9	–	–	–
AGAUCAUGACGAGGAUAUCCGACAUGAGGAUCACCCAUGUAUGUCGGAGGACGCGUACGUCCAAAGGAGAAGGCGUCGUGGUCA [JL SSNG2 1.02] (Eterna round: R96, puzzle: Same State NG 2)	17.4	48.4	100	–	–	–
AGUCCAGCCUAAGCUGGACAAAAGCAUGUACAUGAGGAUCACCCAUGUUCAUGUACAAGCUUUUUGCAAGUCAAAAG [Mat - hsa-mir-208a - Mod of JL - 76] (puzzle: Sensor for hsa-mir-208a)	–	–	–	350	28.1	664
UUGGGUUUGCGAGGAUAUCGUUUGUGAUUUGAUCGAGAAGGCGCUAUUUAAAUUAUUUUAACAUUACAUGAGGAUCACCCAUGU [JR_SSNG1_Sub022] (Eterna round: R96, puzzle: Same State NG 1)	–	14.8	–	–	–	–
AUUAUUUUUGCAGGAUAUGAUUAACAUGAGGAUCACCCAUGUGGUGUUGUGAGUAAGGAGAGUGAUCAGAAGGGCAUUUUUUUU [JMF's solution 60] (Eterna round: R96, puzzle: Same State NG 2)	449	410	315	–	–	–
AGCUAUUAAUCAGGAUAUGGUCACAUGAGGAUCACCCAUGUGUAGAUGAUAAAAUGUGGUCUACACUAGAAGGGAUUGCUAACA [SameState NG2 #60] (Eterna round: R96, puzzle: Same State NG 2)	524	216	236	–	–	–

Sequence	apparent KD of MS2 coat protein (input ligand: FMN 200 uM) [nM]	apparent KD of MS2 coat protein [1] [nM]	apparent KD of MS2 coat protein (input ligand: none) [nM]	apparent KD of MS2 coat protein [2] [nM]	apparent KD of MS2 coat protein [3] [nM]	apparent KD of MS2 coat protein [4] [nM]
CACAUCCAGGUAGGAUAUGAGGUGCCAUAGGGAAAAGCCUAUGGACAUGAGGAUCACCCAUGUCCUCAGAAGGGCCGGACGUGA [Ceerbearre] (Eterna round: R96, puzzle: Same State NG 2)	26.5	79.6	96.7	–	–	–
CCCUUCGGCACAUGAGGAUCACCCAUGUUUUAGUGGAAGAGGUAGGAUAUGGCUGGGAGCAGAAGCCAGAAGGACCAAAUAAAU [Attiatan] (Eterna round: R96, puzzle: Same State NG 3)	22.1	19	9.8	–	–	–
AUACAAAACACAAAUACAAACAAAUACAAACAUGAGGAUCACCCAUGUGCAAUACGACUCUUUAUGGCUGGUCUUCA [Onvete] (Eterna round: R96, puzzle: Sensor for hsa-mir-208a)	87.7	60.1	107	–	–	–
GUAAAACAUGAGGAUCACCCAUGUAAUAAUAUGGGAGGAUAUCAGAAUGUAUGUAUGUAAUGAGAAGGCCUAAAUG [Mat - Same State 1 - Mod of Eli - D74] (puzzle: Same State 1)	–	–	–	101	1610	1120
CCAAAGUACAAUUUAGAUCUACAUGAGGAUCACCCAUGUACUGAGGAUAUCAGCUCGUUUAGAGCUGAGAAGGCAGAAUUAAUU [SSNG3/4-A3] (Eterna round: R96, puzzle: Same State NG 3)	135	111	224	–	–	–
ACAUGAGGAUCACCCAUGUAACCAAGAGAGAGAGCACGGACGCAGGAUAUGCGGCGACGAGCGGAGCAGAAGGGCGCCUCAUAU [Alacarus NG 3 Attempt 1] (Eterna round: R96, puzzle: Same State NG 3)	79.3	52	109	–	–	–
ACCCGCGACGGAGGAUAUGGGCACUCGGCGAAAUAAACCGCCAUAACAUGAGGAUCACCCAUGUCCCAGAAGGCCGUCGCAAUC [Anlelaen] (Eterna round: R96, puzzle: Same State NG 2)	81	154	473	–	–	–
AUUACUAACAUAGGAUAUCAUGCGAAAAUUGCGUGAGAAGGGUGGACACUGUCUUUCUCGGAGUACAUGAGGAUCACCCAUGUG [SameState NG1 #68] (Eterna round: R96, puzzle: Same State NG 1)	564	138	147	–	–	–
GUAGCAUACCGAGGAUAUUCAUAUUACAUGAGGAUCACCCAUGUUAAAGAUAGGCGAAAGCCUUGGGAGAAGGCGGAAUGCUAC [Xeonanis - 20 Mod68] (Eterna round: R96, puzzle: Same State NG 2)	8.61	10.7	11.3	–	–	–
GGCUGCAAUUAUGAGGAUAUGUUCGGAUGAACAUGAGGAUCACCCAUGUGGCGAUAGCUAUCUGUGCAGAAGGUGUAGUGGUAGC [Edlexete] (Eterna round: R96, puzzle: Same State 2)	57.9	90.7	186	–	–	–
UUAGAAUUGCAAGGAUAUCUUAUUUAGAUAGUAAGAGAAGGUGCUUUAUAGUUACAUGAGGAUCACCCAUGUAUUUCUUUUUAU [JR_SSNG1_Sub061] (Eterna round: R96, puzzle: Same State NG 1)	–	16.6	–	–	–	–
AGAUCAUGACGAGGAUAUGGUACAUGAGGAUCACCCAUGUAUGUACCACGACGCGUACGUCGAAUCCAGAAGGCGUCAUGGUCA [Mat - Same State NG 2 - JL mod - D17] (Eterna round: R96, puzzle: Same State NG 2)	17.8	51.3	119	–	–	–
CGGCGCUGUUGAGAGGAUAUGCGGUGAUGGACAUGAGGAUCACCCAUGUUAGCGAUAGCAUUACGGUAGAAGGCUCUACAGCUGU [Soteed Omei mod 11] (puzzle: Same State 2)	–	–	–	–	21.7	–
GAGGGACAGACCAACAUGAGGAUCACCCAUGUCCUCGCAGGUCAGGAUAUUAUGAGGAUCACCCGUGAGAAGGGACGGUGAACC (Eterna round: R96, puzzle: Same State NG 3)	606	468	488	–	–	–
GGUAUCGGCACAGGAUAUGCUAUCCUUUGGGUAGCAGAAGGGUGGACAUGAGGAUCACCCAUGUGGGUGCCAGGGCGUGAGCCC [JL SSNG1 1.85] (Eterna round: R96, puzzle: Same State NG 1)	912	363	907	–	–	–
